Experimental data: publication PMC5772516
“And” between values parts separate entries of the source, which are not always exact repeats. Identical values can stand only once.

What was measured:
[1] = target: vascular endothelial growth factor (VEGF165) (human); test: solid-state nanopore translocation; 20 nM VEGF, pH 7.6, V = +500 mV, ~5.5 nm pore in 12 nm SiNx; 1 M KCl, 50 mM phosphate buffer, 5 mM EDTA, 22.0 ± 0.5 °C; then 0.5 mM TCEP added in the same pore (events converge into one lower-amplitude group, 92%)
[2] = target: vascular endothelial growth factor (VEGF165) (human); test: solid-state nanopore translocation; 0.2 nM to 100 nM VEGF, pH 7.2, V = −500 mV, ~5–6.5 nm pore; 1 M KCl, 50 mM phosphate buffer, 5 mM EDTA, 22.0 ± 0.5 °C; 0.5 mM TCEP added afterwards shifts the events to single-level group A (71%)
[3] = target: vascular endothelial growth factor (VEGF165) (human); test: SDS-PAGE; VEGF solution before reduction (non-reducing)

stoichiometry N [1]: 2 and 3
percent of translocation events in group B (dimer) at 20 nM [2]: 12%
percent of translocation events in level B and B/A (dimeric state) at 0.2 nM [2]: 6%
percent of translocation events in level B and B/A (dimeric state) at 100 nM [2]: 59%
percent of translocation events with a B to A multi-level pattern at 20 nM [2]: 28%
stoichiometry N [2]: 2
stoichiometry N [3]: 2 and 3
Substance: vascular endothelial growth factor (VEGF165) (natural protein)
